From patent publication US20190367609A1 (INNATE PHARMA, published 2019) come the findings set out here.

Experiment [1] concerns the target T1, human NKp46 expressed on cells (human, UniProt O76036 22-304). Briefly: cell-based or functional assay.
In experiment [2] the target is T2, Human 6xHis tagged NKp46 recombinant protein (human, UniProt O76036 22-255, limits assumed).
T2 construct: also called NKp46-His; soluble NKp46-His recombinant proteins; not shown: 6xHis tag
Briefly: SPR Biacore T100, antibody captured on Protein-G chip, soluble NKp46-His 12.5-200 nM, single cycle kinetics, 1:1 model, monovalent. The method, then: SPR measurements were performed on a Biacore T100 apparatus (Biacore GE Healthcare) at 25° C. In all Biacore experiments HBS-EP+ (Biacore GE Healthcare) and NaOH 10 mM NaCl 500 mM served as running buffer and regeneration buffer respectively. Sensorgrams were analyzed with Biacore T100 Evaluation software. Protein-G was purchase from GE Healthcare and Anti-His antibody from QIAGEN. Human 6×His tagged NKp46 recombinant proteins (NKp46-His) were cloned, produced and purified at Innate Pharma.
Affinity study has been performed using the Protein-G chip. Monovalent affinity study was done following the Single Cycle Kinetic (SCK) protocol. Five serial dilutions of soluble NKp46-His recombinant proteins ranging from 12.5 to 200 nM were injected over the captured Anti-NKp46 anti bodies (without regeneration) and allowed to dissociate for 10 min before regeneration. For each antibody, the entire sensorgram was fitted using the 1:1 SCK binding model.

In experiment [3] the target is T1, human NKp46 expressed on cells. The experiment is described as follows: flow cytometry on Raji-hNKp46 cells, dose range, anti-human IgG1-PE detection. The method, then:
Flow cytometry: Cells were harvested and stained in PBS 1×/BSA 0.2%/EDTA 2 mM buffer during 30 minutes at 4° C. using a dose-range of the anti-NKp46 mAbs. After two washes in staining buffer, cells incubated with anti-NKp46 antibodies were stained for 30 min at 4° C. with mouse anti-human IgG1-PE monoclonal antibodies from Miltenyi (dil. 1/10). After two washes, the stainings were acquired on the HTFC Intellicyt device and analyzed using the ForeCyt software.

Experiment [4] has as its target T3, Macaca fascicularis NKp46 expressed on CHO cells (Macaca fascicularis, UniProt Q95JB9 22-306).
T3 construct: Cloned from Macaca fascicularis cDNA and transfected into the CHO cell line; also called cyno NKp46; CHO-cynoNKp46
The experiment is described as follows: flow cytometry on CHO cells transfected with cyno NKp46, dose range, anti-human IgG1-PE detection. The method, then:
The antibodies (including 8B6A, 8B6B, 9H11A, 9H11B and 17E1) were assessed for binding to Macaca fascicularis NKp46 (cyno NKp46) protein. The sequence of cyno NKp46 (shown below) was cloned from Macaca fascicularis cDNA and transfected into the CHO cell line. The binding of CHG1-M-H46 to CHO-cynoNKp46 was analyzed by flow cytometry.
Flow cytometry: CHO cells were harvested and stained in PBS 1×/BSA 0.2%/EDTA 2 mM buffer during 30 minutes at 4° C. using a dose-range of the anti-NKp46 mAbs. After two washes in staining buffer, cells incubated with anti-NKp46 antibodies were stained for 30 min at 4° C. with mouse anti-human IgG1-PE monoclonal antibodies from Miltenyi (dil 1/10). After two washes, stainings were acquired on a HTFC Intellicyt and analyzed using ForeCyt software.

Changes are numbered by the printed parent chain.

T2 sequence (O76036 22-255 Q82K limits assumed): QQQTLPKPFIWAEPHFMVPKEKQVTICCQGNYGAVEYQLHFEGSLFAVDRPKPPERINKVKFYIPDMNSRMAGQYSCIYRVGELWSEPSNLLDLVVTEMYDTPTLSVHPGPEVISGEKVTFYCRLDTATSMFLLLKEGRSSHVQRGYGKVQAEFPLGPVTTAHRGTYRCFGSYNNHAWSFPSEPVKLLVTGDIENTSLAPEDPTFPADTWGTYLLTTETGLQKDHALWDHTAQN
T1 sequence (O76036 22-304 Q82K limits assumed): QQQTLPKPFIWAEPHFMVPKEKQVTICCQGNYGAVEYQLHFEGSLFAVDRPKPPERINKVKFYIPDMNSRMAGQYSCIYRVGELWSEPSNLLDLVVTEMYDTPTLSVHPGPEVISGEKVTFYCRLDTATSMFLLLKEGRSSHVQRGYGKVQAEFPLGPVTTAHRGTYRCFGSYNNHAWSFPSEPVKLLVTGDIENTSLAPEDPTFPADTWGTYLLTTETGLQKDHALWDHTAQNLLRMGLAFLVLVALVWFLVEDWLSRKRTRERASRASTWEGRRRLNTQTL
T3 sequence (Q95JB9 22-306 limits assumed): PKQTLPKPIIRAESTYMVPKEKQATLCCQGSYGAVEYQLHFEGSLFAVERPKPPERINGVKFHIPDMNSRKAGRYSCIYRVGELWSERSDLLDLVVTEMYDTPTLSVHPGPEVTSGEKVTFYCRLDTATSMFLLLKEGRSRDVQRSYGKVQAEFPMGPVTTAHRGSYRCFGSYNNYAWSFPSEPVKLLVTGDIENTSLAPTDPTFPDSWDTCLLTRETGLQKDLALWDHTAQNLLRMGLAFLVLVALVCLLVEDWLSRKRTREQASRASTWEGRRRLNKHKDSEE

B1: 9H11A antibody-drug conjugate with PBD dimer (DAR=2) (antibody, V domains shown)
VH: QVQLQQPGAELVKPGASVKLSCKASGYTFTSYWMHWVKLRPGQGFEWIGEIIPSNGVTNYNEKFKRKATLTVDKSSSTAYMQLSSLTSEDSAVYYCTIRLRYALDYWGQGTSVTVSA
VL: DIQMTQTTSSLSASLGDRVTISCRASQDISNFLNWYQQKPDGTVKLLIYYTSRLHSGVPSRFSGSGSGTDYSLTISNLEQEDIATYFCQQGNTLPPTFGGGTKLEIK
modifications: PBD dimer through amino-PEG-azide / DBCO-val-ala linker on Q295 (Kabat EU numbering) of each heavy chain; deglycosylated with PNGaseF
Turning to B1, in experiment [1], the “IC50 for cytotoxicity towards SNK6 cells (Cell Titer Glo, 72 h)” value (“IC50 for cytotoxicity towards SNK6 cells” for short) worked out at 0.02 ng/mL.

B2: 9H11B (antibody, V domains shown)
VH: B1 VH
VL: DIVMTQSQKFMSTSVGDRVSVTCKASQNVGTNVAWYQQKPGQSPKALIYSTSFRYSGVPDRFTGSGSGTDFTLTISNVQSEDLAEYFCQQYNSYPFTFGSGTKLEIK
notes: Same heavy chain variable domain as 9H11A with a different light chain; also called CHG1-M-H46 9H11-B
As to B2, in experiment [2], the Kd came to 0.892 nM, the off-rate constant (koff) came to 0.000253 s⁻¹ and the kon was determined as 283000 M⁻¹ s⁻¹. This molecule also showed an EC50 in experiment [3] of 124 ng/mL. In experiment [4], the EC50 was 25 ng/mL.

B3: 9H11B antibody-drug conjugate with PBD dimer (DAR=2) (antibody, V domains shown)
VH: B1 VH
VL: B2 VL
modifications: PBD dimer through amino-PEG-azide / DBCO-val-ala linker on Q295 (Kabat EU numbering) of each heavy chain; deglycosylated with PNGaseF
For B3, the “IC50 for cytotoxicity towards SNK6 cells” value in experiment [1] came out at 0.01 ng/mL.

B4: 9H11A (antibody, V domains shown)
VH: B1 VH
VL: B1 VL
notes: also called CHG1-M-H46 9H11-A
Regarding B4, in experiment [2], the Kd worked out at 0.728 nM, the koff was determined as 0.000199 s⁻¹ and the kon stood at 273000 M⁻¹ s⁻¹. Moreover, in experiment [3], the 50% effective concentration (EC50) turned out to be 51 ng/mL. Also, the EC50 in experiment [4] was 26 ng/mL.

B5: 17E1 antibody-drug conjugate with PBD dimer (DAR=2) (antibody, V domains shown)
VH: QVQLQQPGSVLVRPGASVKLSCKASGYTFTSSWMHWAKQRPGQGLEWIGHIHPNSGISNYNEKFKGKATLTVDTSSSTAYVDLSSLTSEDSAVYYCSRGGRFDDWGAGTTVTVSS
VL: DIQMTQSPSSLSASLGERVSLTCRASQDIGSSLNWLQQEPDGTIKRLIYATSRLDSGVPKRFSGSRSGSDYSLTISSLESEDFVDYYCLQYASSPWTFGGGTKLEIK
modifications: PBD dimer through amino-PEG-azide / DBCO-val-ala linker on Q295 (Kabat EU numbering) of each heavy chain; deglycosylated with PNGaseF
As for B5, the “IC50 for cytotoxicity towards SNK6 cells” value in experiment [1] came to 0.01 ng/mL.

B6: 17E1 (antibody, V domains shown)
VH: B5 VH
VL: B5 VL
notes: also called CHG1-M-H46 17E1
As for B6, the EC50 worked out at 55 ng/mL in experiment [3] and 59 ng/mL in experiment [4].

B7: 8B6B (antibody, V domains shown)
VH: QVQLQQPGSELVRPGASVKLSCKASGYTFTSYWMHWVKQRPGQGLEWIGTIYPGSDITNYDEKFKNKATLTVDTSSSTAYMQLSSLTSEDSAVYYCTRDGRFANWGQGTLVTVSA
VL: B5 VL with D1E, R53S, W96Y
notes: Same heavy chain variable domain as 8B6A with a different light chain; also called CHG1-M-H46 8B6-B
Turning to B7, in experiment [2], the Kd worked out at 4.07 nM, the koff was 0.0011 s⁻¹ and the kon was found to be 271000 M⁻¹ s⁻¹. In experiment [3], this molecule showed an EC50 of 76 ng/mL. This molecule displayed an EC50 in experiment [4] of 28 ng/mL.

B8: 8B6A (antibody, V domains shown)
VH: B7 VH
VL: EIVLTQSPAITAASLGQKVTITCSASSSVSYMHWYQQKSGTSPKPWIYEISKLASGVPARFSGSGSGTSYSLTISSMEAEDAAIYYCQQWNLPLTFGAGTKLELK
notes: Mouse variable domains; light chain is kappa (VK); also called CHG1-M-H46 8B6-A
B8: in experiment [2], the Kd turned out to be 4.08 nM, the koff worked out at 0.00109 s⁻¹ and the kon was found to be 267000 M⁻¹ s⁻¹. This molecule had an EC50 in experiment [3] of 148 ng/mL. In experiment [4], this molecule registered an EC50 of 29 ng/mL.
